Laboratory results published in FireProtDB (doi:10.1021/bi701495v).

Conditions: Ajellomyces capsulatus (strain G186AR / H82 / ATCC MYA-2454 / RMSCC 2432); pH 6.5; 25 °C; Urea; CD; KH2PO4 0.01 M; KCl 0.1 M; reversible: Yes; whole UniProt chain shown

B1: Calcium-binding protein wild type, O42720 (protein)
chain: MLFSKVIAPAFILLGAASAAPGGLAPENASKRDQPSVGDAFDKYNEAVRVFTQLSSAANCDWAACLSSLSASSAACIAAVGELGLDVPLDLACAATATSSATEACKGCLW
Question: Which results are given for B1?
Answer: denaturant m value: 0.84 kcal/mol/M; denaturant midpoint (higher = more stable): 3.4 M; unfolding free energy: 2.9 kcal/mol
